The source of these data is publication PMC5737477.

Series [1] addresses RAGE (full-length, recombinant) (UniProt Q62151 1-402). Nature of the series: EMSA. Background: A gel shift assay detects complexes by their altered migration in electrophoresis.
The target of series [2] is RAGE (full-length, recombinant);MRE11 (Mus musculus?;, UniProt Q62151;P49959 1-402;1-708, |). In words: EMSA.
Chain of RAGE (full-length, recombinant);MRE11 (Q62151 whole entry, chain 1 of 2): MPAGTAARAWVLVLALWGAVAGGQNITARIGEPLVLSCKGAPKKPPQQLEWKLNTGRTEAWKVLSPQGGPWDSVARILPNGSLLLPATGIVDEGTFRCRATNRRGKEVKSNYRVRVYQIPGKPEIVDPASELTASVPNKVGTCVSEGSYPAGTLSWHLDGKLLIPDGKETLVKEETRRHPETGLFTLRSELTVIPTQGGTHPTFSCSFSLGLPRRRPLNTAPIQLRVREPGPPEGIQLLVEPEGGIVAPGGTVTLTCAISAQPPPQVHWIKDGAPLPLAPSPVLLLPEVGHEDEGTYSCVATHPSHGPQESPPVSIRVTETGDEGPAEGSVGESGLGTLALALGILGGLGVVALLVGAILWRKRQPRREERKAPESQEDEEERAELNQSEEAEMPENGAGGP
Chain of RAGE (full-length, recombinant);MRE11 (P49959 whole entry, chain 2 of 2): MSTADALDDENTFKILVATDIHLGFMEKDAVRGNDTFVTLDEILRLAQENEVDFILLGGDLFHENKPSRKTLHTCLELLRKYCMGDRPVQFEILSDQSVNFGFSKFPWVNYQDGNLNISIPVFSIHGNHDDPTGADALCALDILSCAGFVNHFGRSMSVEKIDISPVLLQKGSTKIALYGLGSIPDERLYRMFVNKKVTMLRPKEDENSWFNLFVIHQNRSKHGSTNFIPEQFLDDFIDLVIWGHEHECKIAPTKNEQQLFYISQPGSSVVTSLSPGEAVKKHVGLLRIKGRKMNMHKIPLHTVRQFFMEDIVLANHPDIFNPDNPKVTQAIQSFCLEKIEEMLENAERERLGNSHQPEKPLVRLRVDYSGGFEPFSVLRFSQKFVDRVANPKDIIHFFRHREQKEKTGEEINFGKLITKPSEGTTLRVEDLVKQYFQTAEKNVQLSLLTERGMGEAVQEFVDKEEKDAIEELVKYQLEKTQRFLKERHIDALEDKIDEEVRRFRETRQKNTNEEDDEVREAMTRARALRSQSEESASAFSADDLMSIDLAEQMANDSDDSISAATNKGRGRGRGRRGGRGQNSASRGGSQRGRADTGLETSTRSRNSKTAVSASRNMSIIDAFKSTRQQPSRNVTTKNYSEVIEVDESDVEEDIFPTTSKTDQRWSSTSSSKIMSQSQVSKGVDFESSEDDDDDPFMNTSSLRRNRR

Chain of RAGE (full-length, recombinant) (Q62151 whole entry): as the sequence (Q62151 whole entry, chain 1 of 2) above

B1: RAGE EM-F/EM-R 64mer dsDNA probe (dsDNA)
DNA 1: GGACTCCAGGTCCAGGACCGCCGTTTTTCGCGCGCACGGCGCGGGAGGTCCAGCTGGTCCACCTCC
DNA 2: GGAGGTGGACCAGCTGGACCTCCCGCGCCGTGCGCGCGAAAAACGGCGGTCCTGGACCTGGAGTCC
Turning to B1, the binding result in series [1] and in series [2] was “binds” throughout.
